Assay in all cases: SPR, AAV on CM5 chip;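 further: surface plasmon resonance with AAV amine-coupled to the chip as ligand, nanobodies injected as analyte over a concentration series, rate constants and affinity fitted from binding curves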
The target of experiment [1] is T1, AAV8.
T1 construct: also called adeno-associated virus serotype 8
Method: (§1) AAV was amine-coupled to a CM5 sensor chip at a density of 500-800 response units (RU). Nanobodies were injected at seven concentrations (1-100 nM) with a flow rate of 45 μL/min, and chip regeneration was performed using glycine-HCl (pH 1.5). Binding curves at different nanobody concentrations were used to calculate kinetic parameters (Kₐ, Kd, KD) (Table 2 and FIG. 2).

The target in experiment [2] is T2, AAV9.
T2 construct: also called adeno-associated virus serotype 9
Method: as §1

The target of experiment [3] is T3, AAV5.
T3 construct: also called adeno-associated virus serotype 5
Method: as §1

B1: A4-025 (VHH)
VHH: VQLQESGGGLVQPGGSLRLSCAASGSNFRINTMGWYRQAPGKQRELVATVTRGGSTNYADSVKGRFTISRDNPKDTVYLQMNSLRPEDTAVYYCHVDEVRESSWTTSNLWGQGTQVTVSS
B1: in experiment [1], binding was put at a Kd of 2.09 nM; the koff (in general, the first-order rate constant of dissociation) amounted to 0.00026 s⁻¹; the kon – broadly, a measure of how fast the partners come together – was determined as 124000 M⁻¹ s⁻¹. In experiment [2], the Kd (usually a measure of binding affinity in units of concentration) turned out to be 0.737 nM, the koff stood at 0.00012 s⁻¹ and the kon came out at 163000 M⁻¹ s⁻¹. Besides, in experiment [3], the Kd amounted to 85.5 nM, the off-rate constant (koff) was 0.00041 s⁻¹ and the kon turned out to be 4800 M⁻¹ s⁻¹.

B2: A4-026 (VHH)
VHH: VQLQESGGGLVQPGGSLRLSCAASGSNFRINTMGWYRQAPGKQRELVAPVTRGGSTNYADSVKGRFTISRDNAKNTVYLQMNSLRPEDTAVYYCHVDEVRESSWTTSNLWGQGTQVTVSS
In experiment [1], B2 showed a Kd of 27.2 nM, an off-rate constant (koff) of 0.00184 s⁻¹ and a kon of 67700 M⁻¹ s⁻¹. In experiment [2], this molecule registered a Kd of 31 nM, a koff of 0.00253 s⁻¹ and a kon of 81600 M⁻¹ s⁻¹. For the same molecule, in experiment [3], the Kd amounted to 37.4 nM, the koff amounted to 0.00625 s⁻¹ and the kon amounted to 167000 M⁻¹ s⁻¹.

B3: A4-030 (VHH)
VHH: VQLQESGGGLVQPGGSLRLSCAASGSSFTINTMGWYRQAPGKQRELVAAVTRGGSTNYAGSVKGRFTISRDNAKNTIYLQMNSLRPEDTAVYYCHVDEIRQSSWTTSNLWGQGTQVTVSS
For B3, in experiment [1], the Kd was found to be 43.7 nM, the off-rate (koff) turned out to be 0.00034 s⁻¹ and the kon is 7780 M⁻¹ s⁻¹. In experiment [2], this molecule registered a Kd of 27.2 nM, a koff of 0.00025 s⁻¹ and an on-rate (kon) of 9200 M⁻¹ s⁻¹. In addition, in experiment [3], binding was characterised by a dissociation constant (Kd) of 84.4 nM, the koff is 0.00028 s⁻¹ and the kon is 3320 M⁻¹ s⁻¹.

B4: A4-035 (VHH)
VHH: VQLQESGGGLVQAGGSLRLSCAASGRGFSINTMGWYRQAPGKQRELVAAVTRGGTTNYADSVKGRFTISRDNAKNTVYLQMNSLRPEDTAVYYCHVDEVRQSSWTTSNLWGQGTQVTVSS
As for B4, in experiment [1], binding was characterised by a dissociation constant (Kd) of 1.31 nM, the koff is 0.00017 s⁻¹ and the kon is 130000 M⁻¹ s⁻¹. In experiment [2], this molecule returned a Kd of 1.73 nM, a koff of 0.0001 s⁻¹ and an on-rate constant (kon) of 57800 M⁻¹ s⁻¹. In experiment [3], this molecule returned a Kd of 2.52 nM, a koff of 0.0005 s⁻¹ and a kon of 199000 M⁻¹ s⁻¹.

B5: A4-043 (VHH)
VHH: VQLQESGGGLVQPGGSLRLSCAASGRAFSINTMGWYRQAPGKQRELVATVTRDGSTNYAGSVKGRFTISRDNAKNTVYLQMNSLRPEDTAVYYCHVDEVRQSSWTTSNLWGQGTQVTVSS
In experiment [1], B5 had a Kd of 5.45 nM, a koff of 0.00104 s⁻¹ and a kon of 191000 M⁻¹ s⁻¹. In experiment [2], this molecule had a Kd of 0.278 nM, a koff of 4e-05 s⁻¹ and a kon of 144000 M⁻¹ s⁻¹. In experiment [3], the affinity, expressed as Kd, was 7.73 nM; the koff was 0.00028 s⁻¹; the kon came out at 36200 M⁻¹ s⁻¹.

B6: A4-041 (VHH)
VHH: VQLQESGGGLVQPGGSLRLSCAASGRGFSINTMGWYRQAPGKQRELVATVTRGGSTNYANSVKGRFTISRDNAKNTVYLQMNSLRPEDTAVYYCHVDELRQSSWTTSNLWGQGTQVTVSS
In the case of B6, in experiment [1], the Kd was found to be 1980 nM, the koff stood at 0.00245 s⁻¹ and the kon is 1240 M⁻¹ s⁻¹. Besides, in experiment [2], the Kd was found to be 8.15 nM, the koff is 0.00142 s⁻¹ and the kon was 174000 M⁻¹ s⁻¹. For the same molecule, in experiment [3], binding was put at a Kd of 45.9 nM, the koff worked out at 0.00616 s⁻¹ and the kon came out at 134000 M⁻¹ s⁻¹.

B7: A4-033 (VHH)
VHH: VQLQESGGGLVQPGGSLRLSCVASGSSFSINTMGWYRRAPGKQRELVATVTRDGSTNYANSVKGRFTISRDNAKNTVYLQMNSLRPEDTAVYYCHVDEVRQSSWTTSNLWGQGTQVTVSS
Regarding B7, the Kd was 89.2 nM in experiment [1], 199 nM in experiment [2] and 243 nM in experiment [3]. The koff in experiment [1] was found to be 0.00034 s⁻¹; in experiment [2], 0.00045 s⁻¹; in experiment [3], 0.002 s⁻¹. Besides, the results for the kon in experiment [1], in experiment [2] and in experiment [3] were 3810 M⁻¹ s⁻¹, 2270 M⁻¹ s⁻¹ and 8220 M⁻¹ s⁻¹, respectively.

B8: A4-029 (VHH)
VHH: VQLQESGGGLVQPGGSLRLSCAASGSNFSINTMGWYRQRAGKQRELVATVTRGGSTNYADSVKGRFTISRDNAKNTVYLQMNSLRPEDTAVYYCHIDEIRESSWTTSNLWGQGTQVTVSS
On to B8, for which, in experiment [1], the Kd was 0.486 nM, the koff is 4e-05 s⁻¹ and the kon came out at 82300 M⁻¹ s⁻¹. Further, in experiment [2], the Kd turned out to be 14.6 nM, the koff was 0.00141 s⁻¹ and the kon came to 96900 M⁻¹ s⁻¹. In addition, in experiment [3], the Kd was 92.8 nM, the koff worked out at 0.00155 s⁻¹ and the kon came out at 16700 M⁻¹ s⁻¹.

B9: A4-045 (VHH)
VHH: VQLQESGGGLVQPGGSLRLSCAASGSSFSINTMGWYRQAPGKQRELVAAVTRGGVTNYADSVKGRFTISRDNAKNTVYLQMNSLRPEDTAVYYCHVDEVRQSSWTTSNLWGQGTQVTVSS
As for B9, the Kd amounted to 1.07 nM in experiment [1], 37.6 nM in experiment [2] and 41.3 nM in experiment [3]. Also, the values for the koff in experiment [1], in experiment [2] and in experiment [3] were 1e-05 s⁻¹, 0.00027 s⁻¹ and 0.00037 s⁻¹, respectively. Besides, the kon in experiment [1] amounted to 9390 M⁻¹ s⁻¹; in experiment [2], 7190 M⁻¹ s⁻¹; in experiment [3], 8950 M⁻¹ s⁻¹.

B10: A4-037 (VHH)
VHH: VQLQESGGGLVQPGGSLRLSCAASGSIFSINTMGWYRQAPGKQRELVATVTRGGSTNYAGSVKGRFTISRDNAKNTVYLQMNSLRPEDTAVYYCHLDEVRQSSWTTSNIWGQGTQVTVSS
In experiment [1], B10 returned a Kd of 11.6 nM, a koff of 0.0015 s⁻¹ and an on-rate (kon) of 129000 M⁻¹ s⁻¹. In experiment [2], this molecule returned a Kd of 4.07 nM, a koff of 0.0004 s⁻¹ and a kon of 98300 M⁻¹ s⁻¹. In experiment [3], the affinity, expressed as Kd, was 0.88 nM; the koff amounted to 0.00012 s⁻¹; the kon is 136000 M⁻¹ s⁻¹.

B11: A4-036 (VHH)
VHH: VQLQESGGGLAQAGGSLRLSCAASGRGFSINTMGWYRQAPGKQRELVAAVTRGGTTNYADSVKGRFTISRDNAKNTVYLQMNSLRPEDTAVYYCHVDEVRQSSWTTSNLWGQGTQVTVSS
For the molecule B11, the Kd was determined as 336 nM in experiment [1], 1620 nM in experiment [2] and 810 nM in experiment [3]. In addition, the koff amounted to 0.00225 s⁻¹ in experiment [1], 0.00944 s⁻¹ in experiment [2] and 0.00621 s⁻¹ in experiment [3]. Moreover, the kon in experiment [1] came to 6700 M⁻¹ s⁻¹; in experiment [2], 5810 M⁻¹ s⁻¹; in experiment [3], 7670 M⁻¹ s⁻¹.

B12: A4-042 (VHH)
VHH: VQLQESGGGLVQPGGSLRLSCAASGRAFSINTMGWYRQAPGKQRELVATVTRDGSTNYADSVKGRFTISRDNAKNTVYLQMNSLRPEDTAVYYCHVDEVRQSSWTTSNLWGQGTQVTVSS
In experiment [1], B12 yielded an equilibrium dissociation constant (Kd) of 125 nM, a koff of 0.00042 s⁻¹ and a kon of 3360 M⁻¹ s⁻¹. In experiment [2], the Kd is 308 nM, the koff was 0.00144 s⁻¹ and the kon was found to be 4680 M⁻¹ s⁻¹. In experiment [3], this molecule gave a Kd of 152 nM, a koff of 0.00118 s⁻¹ and a kon of 7760 M⁻¹ s⁻¹.

B13: A4-027 (VHH)
VHH: VQLQESGGGLVQPGGSLRLSCAASGSNFSINTMGWYRQAPGKQRELVAALTRGGSTNYADSVKGRFTISRDNAKNTVYLQMNSLRPEDTAVYYCHVDEVRESSWTTSNLWGQGTQVTVSS
As to B13, the Kd was 105 nM in experiment [1], 208 nM in experiment [2] and 236 nM in experiment [3]. The koff came to 0.00085 s⁻¹ in experiment [1], 0.00085 s⁻¹ in experiment [2] and 0.00194 s⁻¹ in experiment [3]. Further, the kon worked out at 8100 M⁻¹ s⁻¹ in experiment [1], 4090 M⁻¹ s⁻¹ in experiment [2] and 8220 M⁻¹ s⁻¹ in experiment [3].

B14: A4-031 (VHH)
VHH: VQLQESGGGLVQPGGSLRLSCAASGSGFSINTMGWYRQAPGKQRELVATVTSAGSTNYAGSVKGRFTISRDNAKNTVYLQMNSLRPEDTAVYYCHVDEIRQSSWTTSNLWGQGTQVTVSS
For B14, the Kd turned out to be 182 nM in experiment [1], 2240 nM in experiment [2] and 41.9 nM in experiment [3]. For the same molecule, the koff is 0.00923 s⁻¹ in experiment [1], 0.00824 s⁻¹ in experiment [2] and 0.00624 s⁻¹ in experiment [3]. Further, the kon in experiment [1] amounted to 50700 M⁻¹ s⁻¹; in experiment [2] it was 3690 M⁻¹ s⁻¹; in experiment [3], 149000 M⁻¹ s⁻¹.

B15: A4-028 (VHH)
VHH: VQLQESGGGLVQPGGSLRLSCAASGSNFSINTMGWYRQAPGKQRELVATVTRGGDTNYADSVKGRFTISRDNAKNTVYLQMNSLRPEDTAVYYCHVDEIRESSWTTSNLWGQGTQVTVSS
For the molecule B15, in experiment [1], binding was characterised by a dissociation constant (Kd) of 6.34 nM, the koff came out at 0.00084 s⁻¹ and the kon was determined as 133000 M⁻¹ s⁻¹. Further, in experiment [2], the dissociation constant Kd was found to be 1.09 nM, the koff is 9e-05 s⁻¹ and the kon is 82400 M⁻¹ s⁻¹. Further, in experiment [3], the dissociation constant (Kd) amounted to 26.4 nM, the koff turned out to be 0.00162 s⁻¹ and the kon came to 61300 M⁻¹ s⁻¹.

B16: A4-040 (VHH)
VHH: VQLQESGGGLVQPGGSLRLSCAASGRIFSINTMGWYRQAPGKQRELVATVTRGGSTNYADSVKGRFTISRDNAKNTVYLQMNSLRPEDTAVYYCHVDEIRQSSWTTSNLWGQGTQVTVSS
Regarding B16, in experiment [1], the Kd stood at 1.71 nM, the koff was 0.00028 s⁻¹ and the kon came to 164000 M⁻¹ s⁻¹. In experiment [2], this molecule returned a Kd of 2.19 nM, a koff of 0.00022 s⁻¹ and a kon of 101000 M⁻¹ s⁻¹. In experiment [3], this molecule returned a Kd of 3.04 nM, a koff of 0.00022 s⁻¹ and a kon of 72300 M⁻¹ s⁻¹.

The record behind these values is US20260193326A1 (published 2026).
